Data from patent publication US20230340151A1 (Pfizer, published 2023).
Read-outs that look alike come from different tables or passages of the source.

How the values were obtained:
[1] = target: T1, Cynomolgus GUCY2C-ECD Cleaved (cynomolgus, UniProt P25092 24-430 (human entry)); experiment: SPR, GUCY2c directly immobilized, 37 C
T1 construct: also called CyGUCY2C
T1 chain: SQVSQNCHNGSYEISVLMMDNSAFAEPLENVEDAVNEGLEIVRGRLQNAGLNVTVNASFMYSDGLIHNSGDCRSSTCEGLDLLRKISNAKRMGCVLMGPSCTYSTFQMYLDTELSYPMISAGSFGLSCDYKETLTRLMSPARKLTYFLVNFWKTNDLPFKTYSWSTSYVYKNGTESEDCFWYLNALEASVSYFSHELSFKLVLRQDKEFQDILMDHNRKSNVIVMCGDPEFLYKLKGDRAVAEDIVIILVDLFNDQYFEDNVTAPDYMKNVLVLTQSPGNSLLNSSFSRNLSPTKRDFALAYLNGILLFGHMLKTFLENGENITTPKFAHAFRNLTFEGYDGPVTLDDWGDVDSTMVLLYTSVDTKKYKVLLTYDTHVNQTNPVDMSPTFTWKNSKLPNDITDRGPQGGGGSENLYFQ

[2] = target: T2, Human GUCY2c on tumor cells (T84, HT55) (human, UniProt P25092 24-1073); experiment: cell-based or functional assay
T2 sequence (P25092 24-1073 limits assumed): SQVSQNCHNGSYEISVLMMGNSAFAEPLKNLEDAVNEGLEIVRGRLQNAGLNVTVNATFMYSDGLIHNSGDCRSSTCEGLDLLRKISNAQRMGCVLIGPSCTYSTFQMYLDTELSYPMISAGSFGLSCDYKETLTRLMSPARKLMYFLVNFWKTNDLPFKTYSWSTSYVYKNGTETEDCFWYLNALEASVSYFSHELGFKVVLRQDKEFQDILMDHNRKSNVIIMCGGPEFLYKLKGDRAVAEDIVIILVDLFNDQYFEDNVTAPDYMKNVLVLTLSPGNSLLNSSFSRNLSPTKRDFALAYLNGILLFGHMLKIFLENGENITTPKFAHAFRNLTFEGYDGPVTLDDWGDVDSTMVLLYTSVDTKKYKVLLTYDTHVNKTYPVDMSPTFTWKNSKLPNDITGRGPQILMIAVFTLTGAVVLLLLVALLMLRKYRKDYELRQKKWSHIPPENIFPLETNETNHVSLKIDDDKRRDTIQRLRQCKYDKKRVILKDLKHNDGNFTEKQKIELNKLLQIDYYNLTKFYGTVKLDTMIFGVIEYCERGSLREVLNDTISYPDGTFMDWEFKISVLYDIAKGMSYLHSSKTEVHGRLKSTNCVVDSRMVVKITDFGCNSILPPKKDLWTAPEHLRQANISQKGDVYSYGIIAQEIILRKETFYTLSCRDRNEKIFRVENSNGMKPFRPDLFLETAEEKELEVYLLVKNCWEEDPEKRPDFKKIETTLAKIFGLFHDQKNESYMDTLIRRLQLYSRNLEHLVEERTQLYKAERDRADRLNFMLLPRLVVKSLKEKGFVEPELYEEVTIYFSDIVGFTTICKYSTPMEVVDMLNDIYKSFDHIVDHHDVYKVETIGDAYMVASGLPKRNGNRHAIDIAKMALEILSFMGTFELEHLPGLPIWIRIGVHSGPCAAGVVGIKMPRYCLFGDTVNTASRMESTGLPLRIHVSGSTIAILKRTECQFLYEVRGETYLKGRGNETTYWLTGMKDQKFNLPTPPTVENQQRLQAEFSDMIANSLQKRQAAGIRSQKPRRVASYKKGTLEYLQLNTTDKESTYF

[3] = target: T3, Human GUCY2C full length (SEQ ID NO: 224), recombinant protein (human, UniProt P25092 24-430, limits assumed); experiment: SPR, GUCY2c directly immobilized, 37 C
T3 construct: also called huGUCY2C; biotinylated human GUCY2c
T3 sequence (P25092 24-430 F281L limits assumed): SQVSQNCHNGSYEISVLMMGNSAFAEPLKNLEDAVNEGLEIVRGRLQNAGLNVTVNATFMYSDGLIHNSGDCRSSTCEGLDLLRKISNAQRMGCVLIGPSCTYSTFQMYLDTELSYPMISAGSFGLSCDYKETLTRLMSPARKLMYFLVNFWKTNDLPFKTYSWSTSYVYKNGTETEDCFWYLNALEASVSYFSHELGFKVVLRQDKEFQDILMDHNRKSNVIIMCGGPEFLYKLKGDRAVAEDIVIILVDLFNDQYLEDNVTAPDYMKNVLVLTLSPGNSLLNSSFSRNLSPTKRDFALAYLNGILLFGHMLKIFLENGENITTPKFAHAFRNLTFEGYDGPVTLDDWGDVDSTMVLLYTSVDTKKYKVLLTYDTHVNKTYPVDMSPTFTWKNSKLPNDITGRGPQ

[4] = target: T1, Cynomolgus GUCY2C-ECD Cleaved; experiment: direct DELFIA, 60 C
[5] = target: T1, Cynomolgus GUCY2C-ECD Cleaved; experiment: SPR, GUCY2c directly immobilized, 25 C
[6] = target: T4, Human CD3 on naive human T cells (human, UniProt P07766 23-207); experiment: flow cytometry titration on naive human T cells (PE-A Geo Mean against concentration in nM)
T4 construct: whole, on cells; on cells it stands in the CD3/TCR complex
T4 sequence (P07766 23-207): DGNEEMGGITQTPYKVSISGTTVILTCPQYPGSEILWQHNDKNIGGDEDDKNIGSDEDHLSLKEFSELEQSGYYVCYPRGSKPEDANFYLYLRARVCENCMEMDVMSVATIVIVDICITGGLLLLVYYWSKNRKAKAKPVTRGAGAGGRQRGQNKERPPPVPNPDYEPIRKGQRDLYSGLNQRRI

[7] = target: T5, Murine GUCY2C-ECD cleaved (mouse, UniProt Q3UWA6 20-433); experiment: SPR, GUCY2c directly immobilized, 25 C
T5 sequence: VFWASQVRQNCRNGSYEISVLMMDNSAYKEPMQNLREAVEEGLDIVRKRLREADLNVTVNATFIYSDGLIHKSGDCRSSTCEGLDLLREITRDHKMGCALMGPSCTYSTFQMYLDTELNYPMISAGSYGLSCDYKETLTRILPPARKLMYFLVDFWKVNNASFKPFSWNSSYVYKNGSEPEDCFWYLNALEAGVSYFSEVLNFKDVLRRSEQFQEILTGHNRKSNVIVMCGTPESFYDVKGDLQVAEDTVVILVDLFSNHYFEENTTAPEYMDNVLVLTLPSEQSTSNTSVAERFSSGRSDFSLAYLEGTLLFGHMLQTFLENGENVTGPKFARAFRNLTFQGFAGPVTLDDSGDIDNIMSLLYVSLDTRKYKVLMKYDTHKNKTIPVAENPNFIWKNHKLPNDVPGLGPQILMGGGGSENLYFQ

[8] = target: T6, Cynomolgus CD3 epsilon-delta (cynomolgus); experiment: SPR, CD3 captured by anti-His, printed 25 C (Table 33F)
T6 chain: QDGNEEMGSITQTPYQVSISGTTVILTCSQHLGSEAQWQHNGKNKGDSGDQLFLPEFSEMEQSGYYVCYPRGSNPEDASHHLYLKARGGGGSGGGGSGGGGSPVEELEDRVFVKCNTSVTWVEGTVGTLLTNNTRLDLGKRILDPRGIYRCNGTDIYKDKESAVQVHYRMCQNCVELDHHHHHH

[9] = target: T1, Cynomolgus GUCY2C-ECD Cleaved; experiment: direct DELFIA, RT
Human CD3 epsilon-delta = target: T7, Human CD3 epsilon-delta (human); experiment: SPR, recombinant human CD3
T7 construct: Single-chain epsilon-linker-delta with His6; also called huCD3
T7 chain: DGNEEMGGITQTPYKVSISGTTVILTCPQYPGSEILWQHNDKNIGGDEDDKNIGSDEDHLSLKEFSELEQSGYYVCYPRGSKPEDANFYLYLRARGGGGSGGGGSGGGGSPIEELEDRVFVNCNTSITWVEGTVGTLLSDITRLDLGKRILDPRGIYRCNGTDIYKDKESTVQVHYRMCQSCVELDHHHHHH

GUCY2C_ECD Peptide 48 = target: T8, GUCY2C_ECD Peptide 48 (human); experiment: peptide DELFIA ELISA;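 note: epitope mapping using overlapping 20-mer GUCY2C peptides covering residues 1-440, extracellular into transmembrane domain, coated at 20 µg/ml as target antigen and probed with antibodies or GUCY2C-CD3 bispecifics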
T8 peptide: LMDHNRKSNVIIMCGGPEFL

GUCY2C_ECD Peptide 24 = target: T9, GUCY2C_ECD Peptide 24 (human); experiment: peptide DELFIA ELISA;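 note: epitope mapping using overlapping 20-mer GUCY2C peptides covering residues 1-440, extracellular into transmembrane domain, coated at 20 µg/ml as target antigen and probed with antibodies or GUCY2C-CD3 bispecifics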
T9 peptide: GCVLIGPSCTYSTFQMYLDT

GUCY2C_ECD Peptide 42 = target: T10, GUCY2C_ECD Peptide 42 (human); experiment: peptide DELFIA ELISA;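 note: epitope mapping using overlapping 20-mer GUCY2C peptides covering residues 1-440, extracellular into transmembrane domain, coated at 20 µg/ml as target antigen and probed with antibodies or GUCY2C-CD3 bispecifics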
T10 peptide: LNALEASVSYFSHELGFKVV

GUCY2C_ECD Peptide 52 = target: T11, GUCY2C_ECD Peptide 52 (human); experiment: peptide DELFIA ELISA;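 note: epitope mapping using overlapping 20-mer GUCY2C peptides covering residues 1-440, extracellular into transmembrane domain, coated at 20 µg/ml as target antigen and probed with antibodies or GUCY2C-CD3 bispecifics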
T11 peptide: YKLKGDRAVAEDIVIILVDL

GUCY2C_ECD Peptide 63 = target: T12, GUCY2C_ECD Peptide 63 (human); experiment: peptide DELFIA ELISA
T12 peptide: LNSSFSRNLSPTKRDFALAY

GUCY2C_ECD Peptide 23 = target: T13, GUCY2C_ECD Peptide 23 (human); experiment: peptide DELFIA ELISA
T13 peptide: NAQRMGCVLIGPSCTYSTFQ

GUCY2C_ECD Peptide 9 = target: T14, GUCY2C_ECD Peptide 9 (human); experiment: peptide DELFIA ELISA
T14 peptide: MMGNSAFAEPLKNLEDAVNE

GUCY2C_ECD Peptide 26 = target: T15, GUCY2C_ECD Peptide 26 (human); experiment: peptide DELFIA ELISA
T15 peptide: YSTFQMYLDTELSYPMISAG

[10] = target: T2, Human GUCY2c on tumor cells (T84, HT55); experiment: cell-based or functional assay; remark: listed apart in the source

B1: GUCY2C-1608 (bispecific antibody)
chain 1: DIQLTQSPSSLSASVGDRVTITCRASESVDYYGSSLLQWYQQKPGKAPKLLIYAASKLASGVPSRFSGSGSGTDFTLTISSLQPEDFATYYCQQTRKAYTFGQGTKLEIKGGGSGGGGEVQLVESGGGLVQPGGSLRLSCAASGFTFSDYYMTWVRQAPGKGLEWVAFIRNQARGYTSDHNPSVKGRFTISRDNAKNSLYLQMNSLRAEDTAVYYCARDRPSYYVLDYWGQGTTVTVSSGCPPCPAPEAAGAPSVFLFPPKPKDTLMISRTPEVTCVVVDVSHEDPEVKFNWYVDGVEVHNAKTKPREEQYNSTYRVVSVLTVLHQDWLNGKEYKCKVSNKALPAPIEKTISKAKGQPREPQVCTLPPSREEMTKNQVSLWCLVKGFYPSDIAVEWESNGQPENNYKTTPPVLDSDGSFFLYSKLTVDKSRWQQGNVFSCSVMHEALHNHYTQKSLSLSPG
chain 2: DIQMTQSPSSLSASVGDRVTITCTSSQSLFNVRSQKNYLAWYQQKPGKAPKLLIYWASTRESGVPSRFSGSGSGTDFTLTISSLQPEDFATYYCKQSYDLFTFGGGTKVEIKGGGGSGGGGEVQLVESGGGLVQPGGSLRLSCAASGFTFSSYWMHWVRQAPGKGLEWIGEIKPSNELTNVHEKFKDRFTISVDKAKNSAYLQMNSLRAEDTAVYYCTRTITTTEGYWFFDVWGQGTLVTVSSGCPPCPAPEAAGAPSVFLFPPKPKDTLMISRTPEVTCVVVDVSHEDPEVKFNWYVDGVEVHNAKTKPREEQYNSTYRVVSVLTVLHQDWLNGKEYKCKVSNKALPAPIEKTISKAKGQPREPQVYTLPPCREEMTKNQVSLSCAVKGFYPSDIAVEWESNGQPENNYKTTPPVLDSDGSFFLVSKLTVDKSRWQQGNVFSCSVMHEALHNHYTQKSLSLSPG
notes: also called GUCY2c CD3 bispecific
Kd [1]: 8.68 nM
koff [1]: 0.00166 s⁻¹
kon [1]: 191000 M⁻¹ s⁻¹
T84 tumor cell EC50 (T cell cytotoxicity, E:T 5:1) [2]: 0.19 nM
Kd [3]: 13.5 nM
koff [3]: 0.00217 s⁻¹
kon [3]: 161000 M⁻¹ s⁻¹
EC50 [4]: 49.9 nM
Kd [5]: 3.01 nM
koff [5]: 0.000417 s⁻¹
kon [5]: 138000 M⁻¹ s⁻¹
Kd [6]: 35.4 nM
Kd [7]: 17.3 nM
koff [7]: 0.00157 s⁻¹
kon [7]: 91200 M⁻¹ s⁻¹
Kd [8]: 130 nM
koff [8]: 0.0665 s⁻¹
kon [8]: 514000 M⁻¹ s⁻¹
EC50 [9]: 9.84 nM
Kd (Human CD3 epsilon-delta): 128 nM
DELFIA TRF (GUCY2C_ECD Peptide 48): 148
DELFIA TRF (GUCY2C_ECD Peptide 24): 119
DELFIA TRF (GUCY2C_ECD Peptide 42): 96.5
DELFIA TRF (GUCY2C_ECD Peptide 52): 104
DELFIA TRF (GUCY2C_ECD Peptide 63): 110
DELFIA TRF (GUCY2C_ECD Peptide 23): 96.2
DELFIA TRF (GUCY2C_ECD Peptide 9): 145
DELFIA TRF (GUCY2C_ECD Peptide 26): 104
T84 tumor cell EC50 (T cell cytotoxicity, E:T 5:1) [10]: 0.19 nM
